Test results reported in US20220229058A1.
Where no end group is shown, it is not given here.

Assays:
[1] = biological target: norovirus GII.17 Saitama strain virus-like particle (VLP) (norovirus GII.17 Saitama strain); test: BLI (BLItz), biotinylated peptide on SA chip, VLP in solution
[2] = biological target: norovirus GII.3 TCH strain virus-like particle (VLP) (norovirus GII.3 TCH strain); test: as above

| Binder | Kd [1] [µM] | koff [1] [s⁻¹] | kon [1] [M⁻¹ s⁻¹] | Kd [2] [µM] | koff [2] [s⁻¹] | kon [2] [M⁻¹ s⁻¹] |
| --- | --- | --- | --- | --- | --- | --- |
| KYRATICHTV (also: biotinylated, residue not given here, spacer sequence added, letters and position not given here) [norovirus-binding peptide of SEQ ID NO: 52] | 0.0179 | 0.0232 | 1.29e+06 | 0.0138 | 0.0103 | 747000 |
| SVMVTRSLFG (also: biotinylated, residue not given here, spacer sequence added, letters and position not given here) [norovirus-binding peptide of SEQ ID NO: 163] | 0.168 | 0.0185 | 110000 | 0.00766 | 0.00786 | 1.03e+06 |
| NFRVPIRFTH (also: biotinylated, residue not given here, spacer sequence added, letters and position not given here) [norovirus-binding peptide of SEQ ID NO: 131] | – | – | – | 157 | 0.262 | 1660 |
| ECMGRRWMSS (also: biotinylated, residue not given here, spacer sequence added, letters and position not given here) [norovirus-binding peptide of SEQ ID NO: 154] | – | – | – | 0.123 | 0.0173 | 141000 |
| VVGFGRRSLF (also: biotinylated, residue not given here, spacer sequence added, letters and position not given here) [norovirus-binding peptide of SEQ ID NO: 156] | 234 | 0.0931 | 398 | 1.06 | 0.0713 | 67300 |
| YVVASKSNRL (also: biotinylated, residue not given here, spacer sequence added, letters and position not given here) [norovirus-binding peptide of SEQ ID NO: 143] | – | – | – | 0.0135 | 0.0044 | 325000 |
| VELFLLTSSC (also: biotinylated, residue not given here, spacer sequence added, letters and position not given here) [norovirus-binding peptide of SEQ ID NO: 155] | – | – | – | 803 | 0.0926 | 115 |
| VCVDNDISMS (also: biotinylated, residue not given here, spacer sequence added, letters and position not given here) [norovirus-binding peptide of SEQ ID NO: 150] | 2510 | 0.255 | – | 0.437 | 0.0118 | 27000 |
| YVIRNSDRHN (also: biotinylated, residue not given here, spacer sequence added, letters and position not given here) [norovirus-binding peptide of SEQ ID NO: 43] | 234 | 0.192 | 822 | 0.0672 | 0.0793 | 1.18e+06 |
| YRRSKSEIFV (also: biotinylated, residue not given here, spacer sequence added, letters and position not given here) [norovirus-binding peptide of SEQ ID NO: 59] | 0.383 | 0.0511 | 134000 | 0.00887 | 0.00714 | 805000 |
| GCVGDLYCSA (cysteine pairing not given here; also: biotinylated, residue not given here, spacer sequence added, letters and position not given here) [norovirus-binding peptide of SEQ ID NO: 172] | – | – | – | 69.3 | 0.0131 | 189 |
| ICSSWFPSVH (also: biotinylated, residue not given here, spacer sequence added, letters and position not given here) [norovirus-binding peptide of SEQ ID NO: 48] | 0.0766 | 0.0978 | 1.28e+06 | 0.0303 | 0.0246 | 810000 |
